This is an account of results in ChEMBL document CHEMBL2073921, “The human T-type amino acid transporter-1: characterization, gene organization, and chromosomal location” (Genomics, 2002).

Holding throughout (details): Xenopus laevis; Oocyte
Substrate in data set [1]: N[C@@H](Cc1ccc(O)c(O)c1)C(=O)O
Description: (§1) TP_TRANSPORTER: uptake in Xenopus laevis oocytes
Substrate in data set [2]: N[C@@H](Cc1ccccc1)C(=O)O
Description: as §1
Substrate in data set [3]: N[C@@H](Cc1ccc(O)cc1)C(=O)O
Description: as §1
Substrate in data set [4]: N[C@@H](Cc1c[nH]c2ccccc12)C(=O)O
Description: as §1
Substrate in data set [5]: N[C@H](Cc1ccccc1)C(=O)O
Description: as §1

B1: SLC16A10 protein (Homo sapiens), Q05BR4 (protein)
chain: MVLSQEEPDSARGTSEAQPLGPAPTGAAPPPGPGPSDSPEAAVEKVEVELAGPATAEPHEPPEPPEGGWGWLVMLAAMWCNGSVFGIQNACGVLFVSMLETFGSKDDDKMVFKTAWVGSLSMGMIFFCCPIVSVFTDLFGCRKTAVVGAAVGFVGLMSSSFVSSIEPLYLTYGIIFACGCSFAYQPSLVILGHYFKKRLGLVNGIVTAGSSVFTILLPLLLRVLIDSVGLFYTLRVLCIFMFVLFLAGFTYRPLATSTKDKESGGSGSSLFSRKKFSPPKKNFQFCHLQGDSLCSVGSWNTTCTFWILCALCSLGEYAPSLIMNITI
For B1, the Km (as a rule, the concentration of substrate that gives half-maximal velocity) in data set [1] was found to be 1210 µM; in data set [2] it was 740 µM; in data set [3], 636 µM; in data set [4] it was 452 µM; in data set [5], 2300 µM.
